Patent publication US20260263521A1 (AIMED BIO, published 2026)
Residue numbers refer to the chain shown, from its start. Several values for one entry are separate records, joined by “and”; a condition that tells them apart may be missing. Identical values can stand only once. Values belong to the binder of their own block, whether it stands above or below them.

Assays:
[1] = target: T1, human CD200R1 expressed on cells (Jurkat-CD200R1, U937-CD200R1, HH cells) (human, UniProt Q8TD46 25-348); assay: flow cytometry, HH cells; drawn table
T1 construct: whole, on cells; also called HH (CRL-2105); cell surface-expressed CD200R1
T1 sequence (looked up): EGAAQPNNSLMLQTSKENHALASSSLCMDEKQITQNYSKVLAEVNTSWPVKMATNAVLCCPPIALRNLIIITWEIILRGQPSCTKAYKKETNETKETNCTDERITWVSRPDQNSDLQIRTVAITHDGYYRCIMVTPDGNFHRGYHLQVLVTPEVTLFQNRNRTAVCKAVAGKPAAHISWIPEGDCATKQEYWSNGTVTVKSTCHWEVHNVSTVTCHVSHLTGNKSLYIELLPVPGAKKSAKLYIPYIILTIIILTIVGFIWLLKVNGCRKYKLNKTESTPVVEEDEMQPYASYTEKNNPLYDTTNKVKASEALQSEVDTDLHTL

[2] = target: T1, human CD200R1 expressed on cells …; assay: flow cytometry, HH cells; drawn table, row EC50
[3] = target: T1, human CD200R1 expressed on cells …; assay: flow cytometry on Jurkat-CD200R1 and HH cells, 500 nM antibody in IgG1 form
Experimental: The cells were washed by centrifugation at 130 g for 5 minutes. The cells were seeded onto 96-well round-bottom plates (SPL, #34296) at a density of 1×10⁵ cells/well in Flow cytometry staining buffer (Invitrogen, #00-4222-26) or FACS buffer. […] After incubation for 1 hour at 4° C., the cells were treated with Alexa-647 Goat anti-human IgG (H+L) cross-adsorbed secondary antibody (Invitrogen, #A21445) and incubated at 4° C. for an additional 30 minutes. After washing twice with FACS buffer, flow cytometry analysis was performed using a Novocyte Flow cytometer (Agilent).

[4] = target: T2, human CD200R1 recombinant protein (construct not stated) (human, UniProt Q8TD46 27-266, limits assumed); assay: ELISA on human CD200R1, O.D 450 nm, 0.0192-300 nM; panel 'P001_CD200R1 human 1'
T2 sequence (looked up): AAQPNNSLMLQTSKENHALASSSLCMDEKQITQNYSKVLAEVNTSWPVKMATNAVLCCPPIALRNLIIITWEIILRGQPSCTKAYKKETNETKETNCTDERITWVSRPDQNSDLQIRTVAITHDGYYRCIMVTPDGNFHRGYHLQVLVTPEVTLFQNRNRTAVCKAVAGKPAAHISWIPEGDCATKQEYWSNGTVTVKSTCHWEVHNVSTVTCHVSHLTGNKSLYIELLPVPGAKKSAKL
Experimental: (§1) 96-well plates were coated with human CD200R1 (R&D systems, 3414-CD) and mouse CD200R1 protein (R&D systems, 2554-CD) at a concentration of 2 μg/mL at 4° C. for 16 hours and then were blocked with 3% skim milk.
(§2) Color was developed with a TMB substrate solution (Thermo Scientific, 34029, 1-Step™ TMB-ELISA Ultra Substrate Solution). The color reaction was stopped with stop solution (Invitrogen, SS04, ELISA Stop Solution). The absorbance was measured at an optical density of 450 nm.
The secondary engineered antibodies were evaluated by ELISA in the same manner as in Examples described above.

[5] = target: T3, human CD200RLa (Sino Biological, 11620-H08H) recombinant protein (human, UniProt Q6Q8B3 24-239); assay: ELISA, plate-bound human CD200RLa (2 ug/mL), antibody 0.0192-300 nM, O.D 450 nm; panel 'recombinant human CD200RLa'
T3 construct: Bought; construct not described
T3 sequence (looked up): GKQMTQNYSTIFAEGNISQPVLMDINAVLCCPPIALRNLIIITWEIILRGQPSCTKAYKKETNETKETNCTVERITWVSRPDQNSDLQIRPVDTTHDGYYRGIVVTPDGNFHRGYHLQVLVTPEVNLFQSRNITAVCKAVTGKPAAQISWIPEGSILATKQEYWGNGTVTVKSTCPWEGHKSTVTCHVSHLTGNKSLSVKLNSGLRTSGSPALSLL
Experimental: (§3) 96-well plates were coated with human CD200RLa (Sino Biological, 11620-H08H) and monkey CD200RLa (Sino Biological, 11576-C02H) recombinant proteins at a concentration of 2 μg/mL at 4° C. for 16 hours, and blocked with 3% skim milk for 1 hour. […] Color was developed with a TMB substrate solution (Thermo Scientific, 34029, 1-Step™ Ultra TMB-ELISA Substrate Solution). The color reaction was stopped with stop solution (Invitrogen, SS04, ELISA Stop Solution).

[6] = target: T4, mouse CD200R1 protein (R&D systems, 2554-CD) (mouse, UniProt Q9ES57 26-238, limits assumed); assay: ELISA, plate-bound mouse CD200R1 (2 ug/mL), IgG 0.0192-300 nM, OD 450 nm; panel 'mouse CD200R1'
T4 construct: Bought; construct not described
T4 sequence (looked up): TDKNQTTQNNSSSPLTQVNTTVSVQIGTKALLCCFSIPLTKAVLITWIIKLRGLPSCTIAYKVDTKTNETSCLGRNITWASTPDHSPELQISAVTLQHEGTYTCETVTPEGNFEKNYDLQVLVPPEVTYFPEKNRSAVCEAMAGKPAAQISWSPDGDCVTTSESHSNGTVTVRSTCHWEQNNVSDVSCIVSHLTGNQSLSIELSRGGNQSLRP
Experimental: as §1, §2

[7] = target: T5, Hybrid CD200R1 MH (mouse;human, UniProt Q9ES57;Q8TD46); assay: ELISA, plate-bound MH hybrid (1 ug/mL), antibody 0.0192-300 nM, O.D 450 nm; panel 'P001 MH domain-1)'
T5 construct: single domain; mouse D1 over human D2; also called MH hybrid domain; P001 MH domain
T5 sequence (hybrid extracellular part, looked up): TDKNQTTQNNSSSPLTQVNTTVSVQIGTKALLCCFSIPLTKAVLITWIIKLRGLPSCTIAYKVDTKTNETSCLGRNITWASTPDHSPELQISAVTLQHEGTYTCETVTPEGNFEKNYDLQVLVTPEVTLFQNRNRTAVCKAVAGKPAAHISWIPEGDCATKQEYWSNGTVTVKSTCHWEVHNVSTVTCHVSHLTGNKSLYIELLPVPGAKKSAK
Experimental: (§4) Recombinant proteins were produced from the extracellular Ig-like V-type domain and Ig-like C2-type domain of human CD200R1, each designed as human-mouse (HM hybrid domain) and mouse-human (MH hybrid domain) recombinant proteins. A 96-well plate was coated at a concentration of 1 μg/mL with each protein at 4° C. for 16 hours and blocked with 3% skim milk. […] After color development with TMB substrate solution (Thermo Scientific, 34029, 1-Step™ Ultra TMB-ELISA Substrate Solution), the color reaction was stopped with a stop solution (Invitrogen, SS04, ELISA Stop Solution), and the absorbance was measured at an O.D. of 450 nm.

[8] = target: T5, Hybrid CD200R1 MH; assay: ELISA, plate-bound MH hybrid (1 ug/mL), antibody 0.0192-300 nM, O.D 450 nm; panel 'P001 MH domain-2)'
Experimental: as §4

[9] = target: T6, monkey CD200RLa (Sino Biological, 11576-C02H) recombinant protein (monkey (cyno), UniProt A0A2K5W6R0 30-246); assay: ELISA, plate-bound monkey CD200RLa (2 ug/mL), antibody 0.0192-300 nM, O.D 450 nm; panel 'recombinant cynomolgus CD200RLa/Fc'
T6 construct: Bought; construct not described; also called cyno CD200RLa
T6 sequence: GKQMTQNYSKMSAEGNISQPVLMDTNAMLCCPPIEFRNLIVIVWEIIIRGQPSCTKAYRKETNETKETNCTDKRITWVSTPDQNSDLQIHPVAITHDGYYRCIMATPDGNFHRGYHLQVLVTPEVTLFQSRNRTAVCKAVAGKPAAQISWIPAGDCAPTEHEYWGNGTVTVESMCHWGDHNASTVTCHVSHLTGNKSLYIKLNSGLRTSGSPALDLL
Experimental: as §3

[10] = target: T2, human CD200R1 recombinant protein …; assay: hybridoma ELISA on human CD200R1
[11] = target: T5, Hybrid CD200R1 MH; assay: ELISA, plate-bound MH hybrid (1 ug/mL), antibody 0.0192-300 nM, O.D 450 nm; panel 'P001 MH domain-4)'
Experimental: as §4

binding result [5]: no binding (tested: 300 nM)
B1: P001018 (huOX108.1) (antibody, V domains shown)
VH: QVQLVQSGAEVKKPGASVKVSCKASGYTFTSYVMHWVRQAPGQGLEWMGYINPYNDDTNYNEKFKGRVTMTRDTSTSTVYMELSSLRSEDTAVYYCAREDYYGSRWGYWGQGTLVTVSS
VL: DIVLTQSPASLAVSPGQRATITCRASKSVSTSGYSYMHWYQQKPGQPPKLLIYLASNLESGVPARFSGSGSGTDFTLTINPVEANDTANYYCQHSRELLTFGQGTKVEIK
notes: also called humanized antibody P001018
Geo mean (%) at 0.05 nM [1]: 2.1%
Geo mean (%) at 0.19 nM [1]: 6.1%
Geo mean (%) at 0.78 nM [1]: 15.8%
Geo mean (%) at 3.125 nM [1]: 35.2%
Geo mean (%) at 12.5 nM [1]: 65.7%
Geo mean (%) at 50 nM [1]: 79.7%
Geo mean (%) at 200 nM [1]: 96.9%
Geo mean (%) at 800 nM [1]: 100%
EC50 [2]: 6.64 nM
MFI normalized to P001017 (chimeric OX108), % [3]: > 50%
EC50 (read off the curve) [4]: ~2 nM and ~5 nM

binding result [6]: no binding (tested: 300 nM)
binding result [5]: no binding (tested: 300 nM)
B2: P001005 (IgG) (antibody, V domains shown)
VH: EVQLLESGGGLVQPGGSLRLSCAASGFTFSGYDMSWVRQAPGKGLEWVSQIYPGNGSKYYADSVKGRFTISRDNSKNALYLQMNSLRAEDTAVYYCAKDLQTWTSRRFDYWGQGTLVTVSS
VL: QSVLTQPPSASGTPGQRVTISCSGSSSNIGNNDVNWYQQLPGTAPKLLIYSNSHRPSGVPDRFSGSKSGTSASLAISGLRSEDGADYYCGTWDDSLNGYVFGGGTKLTVL
binding result [7]: no binding (tested: 300 nM)

binding result [6]: no binding (tested: 300 nM)
binding result [5]: no binding (tested: 300 nM)
binding result [9]: no binding (tested: 300 nM)
B3: P001008 (IgG) (antibody, V domains shown)
VH: EVQLLESGGGLVQPGGSLRLSCAASGFTFSSYDMSWVRQAPGKGLEWVSWISHGGGSIYYADSVKGRFTISRDNSKNTLYLQMNSLRAEDTAVYYCARDAPALMHSLFDYWGQGTLVTVSS
VL: B2 VL with N31S, D33H, S51Y, N52D, H54Q, G84E, T91S, D94A
MFI normalized to P001017 (chimeric OX108), % [3]: > 50%
binding result [8]: no binding (tested: 300 nM)

binding result [6]: no binding (tested: 300 nM)
binding result [5]: no binding (tested: 300 nM)
B4: P001010 (IgG) (antibody, V domains shown)
VH: EVQLLESGGGLVQPGGSLRLSCAASGFTFSNYAMSWVRQAPGKGLEWVSSISPGGGSIYYADSVKGRFTISRDNSKNTLYLQMNSLRAEDTAVYYCARDPGQMFWPLFDYWGQGTLVTVSS
VL: B2 VL with S23T, N31S, D33N, N35S, S51D, N52D, G84E, T91S, D94A
binding result [8]: no binding (tested: 300 nM)

Continued, binder first:

B5: 1H10 (hybridoma clone) (antibody, V domains shown)
VH: QVQLQQPGAELVKPGTSVKLSCKASGYNFTSYWINWVKLRPGQGLEWIGDINPGSGSTNYNEKFRSKATLTVGTSSSTAYMQLSSLASEDSALYYCAREDYYGSRFFYWGQGTLVTVSA
VL: DVVMTQTPLSLPVSLGDQASISCRSSQSLVHSNGNTYLHWYLQKPGQSPKLLIYKVSNRFSGVPDRFSGSGSGTDFTLKISRVEAEDLGVYFCSQSTHVTFGAGTKLELK
ELISA O.D. [10]: ≥ 1.5 O.D.
binding result [11]: no binding (tested: 300 nM)

B6: 6A10 (hybridoma clone) (antibody, V domains shown)
VH: QLQQSGAELVRSGASVKLSCTASGFNIKDYYLHWIKQRPEQGLEWIGWIDPENGDTEYAPKFQGKATMTADTSSNTAYLQLISLTSEDAAVYYCFAGGSYWGQGTSVTVSS
VL: DIVMTQSPSSLSVSAGEKVTMSCKSSQSLLNSGNQKNYLAWYQQKPGQPPKLLIYGASTRESGVPDRFTGSGSGTDFTLTISSVQAEDLAVYYCQNDHSYPYTFGGGTKLEIK
ELISA O.D. [10]: ≥ 1.5 O.D.
binding result [11]: no binding (tested: 300 nM)

B7: P001004 (IgG) (antibody, V domains shown)
VH: EVQLLESGGGLVQPGGSLRLSCAASGFTFSDYYMSWVRQAPGKGLEWVSGIYPGDGSIYYADSVKGRFTISRDNSKNTLYLQMNSLRAEDAAVYYCAKGLDLYEPMAFDYWGQGTLVTVSS
VL: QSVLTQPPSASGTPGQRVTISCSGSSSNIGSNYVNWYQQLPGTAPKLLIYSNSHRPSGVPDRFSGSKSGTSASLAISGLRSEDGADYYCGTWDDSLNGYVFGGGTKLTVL
MFI normalized to P001017 (chimeric OX108), % [3]: > 50%
binding result [6]: no binding (tested: 300 nM)
binding result [7]: no binding (tested: 300 nM)
binding result [5]: no binding (tested: 300 nM)
